Laboratory results reported in paper PMC3411786.

Tests used:
Asp85 [1] = molecular target: Asp85 (UniProt position 98, WARYADWLFTA); experiment: UV-vis; conditions: pH adjusted with 0.1 M HCl or NaOH, Retinal-reconstituted chromoprotein in purple membrane, ground state. Light/dark adaptation state during the titration is not stated.
Asp85 [2] = molecular target: Asp85 (UniProt position 98, WARYADWLFTT); experiment: UV-vis; conditions: pH adjusted with 0.1 M HCl or NaOH, Retinal-reconstituted chromoprotein in purple membrane, ground state. Light/dark adaptation state during the titration is not stated.
[3] = 150 mM KCl, none stated (Methods say non-buffered)
[4] = Deionised water with no added salt, apart from the HCl/NaOH titrant, none (non-buffered)

Substance | pKa (Asp85 [1]; [3]) | pKa (Asp85 [1]; [4]) | pKa (Asp85 [2]; [3]) | pKa (Asp85 [2]; [4])
Bacteriorhodopsin T90A, bacterioopsin reconstituted with 13-ethyl retinal (T90A-13E-RET) (Halobacterium salinarum; T90A) | 6.4 | 6.7 |  | 
Bacteriorhodopsin T90A, bacterioopsin reconstituted with all-trans retinal (T90A-AT) (Halobacterium salinarum; T90A) | 5.8 | 6.1 |  | 
Bacteriorhodopsin, wild-type bacterioopsin reconstituted with 13-ethyl retinal (WT-13E-RET) (Halobacterium salinarum) |  |  | 4.5 | 4.7
Bacteriorhodopsin, wild-type bacterioopsin reconstituted with all-trans retinal (WT-AT) (Halobacterium salinarum) |  |  | 3.9 | 4.6
